# Assay results taken from article PMC3017759.
# Legend:
# IL4Rα (Homo sapiens) = IL4Rα (Homo sapiens) (UniProt P24394); settings: cited from earlier work
# IL13Rα1 (Homo sapiens) = IL13Rα1 (Homo sapiens) (UniProt P78552); settings: cited from earlier work
# γc (Homo sapiens) = γc (Homo sapiens) (UniProt P31785); settings: cited from earlier work
# [1] = molecular target: M. musculus (C57BL/6) IL4Rα extracellular domain (M. musculus (C57BL/6)) (UniProt P16382); experiment: SPR; BIAcore 2000; about 1400 RU of IL4Rα immobilised on a CM5 chip by amine linkage; graded doses of IL4 in the mobile phase; HBS-EP (10 mM HEPES pH 7.4, 150 mM NaCl, 3 mM EDTA, 0.005% P-20); 25°C; flow 3 μl/min; 1:1 Langmuir fit; average of two independent experiments on two chips
# UniProt P16382, sequence (P16382 26-233): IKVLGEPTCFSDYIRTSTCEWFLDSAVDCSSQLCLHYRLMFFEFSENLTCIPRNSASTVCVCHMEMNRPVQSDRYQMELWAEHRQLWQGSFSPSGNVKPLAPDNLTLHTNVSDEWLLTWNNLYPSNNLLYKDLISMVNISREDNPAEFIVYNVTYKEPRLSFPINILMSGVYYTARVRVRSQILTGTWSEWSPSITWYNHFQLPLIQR
# UniProt P24394, sequence (P24394 26-232): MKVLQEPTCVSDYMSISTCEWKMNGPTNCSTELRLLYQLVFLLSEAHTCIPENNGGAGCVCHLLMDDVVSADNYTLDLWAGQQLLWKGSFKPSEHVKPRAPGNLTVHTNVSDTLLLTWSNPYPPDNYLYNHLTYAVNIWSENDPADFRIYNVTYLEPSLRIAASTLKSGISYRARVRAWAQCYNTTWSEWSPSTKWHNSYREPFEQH
# UniProt P31785, sequence (P31785 23-262): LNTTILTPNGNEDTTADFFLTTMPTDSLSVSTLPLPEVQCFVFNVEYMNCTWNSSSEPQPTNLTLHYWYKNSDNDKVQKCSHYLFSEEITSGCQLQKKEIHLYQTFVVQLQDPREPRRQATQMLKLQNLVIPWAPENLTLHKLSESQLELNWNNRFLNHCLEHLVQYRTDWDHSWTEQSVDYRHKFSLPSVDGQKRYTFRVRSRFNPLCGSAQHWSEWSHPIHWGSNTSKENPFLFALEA
# UniProt P78552, sequence (P78552 22-343): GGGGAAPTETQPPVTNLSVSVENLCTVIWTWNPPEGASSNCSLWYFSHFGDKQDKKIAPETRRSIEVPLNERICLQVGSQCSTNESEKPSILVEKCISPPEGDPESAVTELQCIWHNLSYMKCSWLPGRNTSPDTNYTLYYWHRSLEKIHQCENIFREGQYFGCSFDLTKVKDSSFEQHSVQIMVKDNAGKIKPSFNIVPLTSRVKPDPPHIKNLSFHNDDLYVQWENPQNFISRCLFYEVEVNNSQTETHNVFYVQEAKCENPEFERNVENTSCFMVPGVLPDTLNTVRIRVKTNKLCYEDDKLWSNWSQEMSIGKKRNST
# IL4, sequence (P05112 25-153): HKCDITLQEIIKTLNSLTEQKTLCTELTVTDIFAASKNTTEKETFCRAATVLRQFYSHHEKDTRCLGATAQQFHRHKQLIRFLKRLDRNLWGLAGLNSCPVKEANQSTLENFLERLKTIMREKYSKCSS
substance,measurement,setting,value
IL4 (from UniProt P05112),Kd,IL4Rα (Homo sapiens),1 nM
IL4/IL4Rα complex (from UniProt P05112),Kd,IL13Rα1 (Homo sapiens),500 nM
same,Kd,γc (Homo sapiens),500 nM
"recombinant CAST/Ei IL4 (interleukin-4, Mus musculus castaneus allotype) (from UniProt P07750 21-140) (ligand)",Ka,[1],4.44e+09 M⁻¹
same,Kd,[1],0.226 nM
same,koff,[1],0.000713 s⁻¹
same,kon,[1],3.16e+06 M⁻¹ s⁻¹
